Columns and labels:
Assay in all cases: ELISA; wt or alanine-mutant E2 from 293T lysate captured by GNA on microtiter plates, amount normalised by CBH-17 binding; CD81-LEL added at 20 µg/ml; bound CD81-LEL detected with anti-CD81; percent relative to wt
[1] = target: H77C E1E2 mutant K446A (hepatitis C virus genotype 1a, isolate H77C)
[2] = target: H77C E1E2 mutant N428A (hepatitis C virus genotype 1a, isolate H77C)
[3] = target: H77C E1E2 mutant Y443A (hepatitis C virus genotype 1a, isolate H77C)

For “CD81 large extracellular loop fused to glutathione S-transferase (from UniProt P60033 1-236) (domain or fragment)”, which percent CD81 binding relative to wt [1] is on record?
Its percent CD81 binding relative to wt is 83%.

And the percent CD81 binding relative to wt [2]?
The percent CD81 binding relative to wt was 10%.

And the percent CD81 binding relative to wt [3]?
The percent CD81 binding relative to wt was 20%.

Source: paper PMC3325216
